Data taken from patent publication US20030039658.

Key:
[1] = molecular target: rGST-CTD, recombinant glutathione-S-transferase fusion protein containing a portion of the CTD of RPB1 of Pol II (UniProt P24928)
[2] = molecular target: FLAG-tagged DSIF p160 (FT-DSIFp160) (UniProt O00267)
[3] = molecular target: RPB1, the largest (220 kDa) subunit of Pol II, within purified Pol II (UniProt P24928)

Cyclin T1, sequence (chain, as listed by the source): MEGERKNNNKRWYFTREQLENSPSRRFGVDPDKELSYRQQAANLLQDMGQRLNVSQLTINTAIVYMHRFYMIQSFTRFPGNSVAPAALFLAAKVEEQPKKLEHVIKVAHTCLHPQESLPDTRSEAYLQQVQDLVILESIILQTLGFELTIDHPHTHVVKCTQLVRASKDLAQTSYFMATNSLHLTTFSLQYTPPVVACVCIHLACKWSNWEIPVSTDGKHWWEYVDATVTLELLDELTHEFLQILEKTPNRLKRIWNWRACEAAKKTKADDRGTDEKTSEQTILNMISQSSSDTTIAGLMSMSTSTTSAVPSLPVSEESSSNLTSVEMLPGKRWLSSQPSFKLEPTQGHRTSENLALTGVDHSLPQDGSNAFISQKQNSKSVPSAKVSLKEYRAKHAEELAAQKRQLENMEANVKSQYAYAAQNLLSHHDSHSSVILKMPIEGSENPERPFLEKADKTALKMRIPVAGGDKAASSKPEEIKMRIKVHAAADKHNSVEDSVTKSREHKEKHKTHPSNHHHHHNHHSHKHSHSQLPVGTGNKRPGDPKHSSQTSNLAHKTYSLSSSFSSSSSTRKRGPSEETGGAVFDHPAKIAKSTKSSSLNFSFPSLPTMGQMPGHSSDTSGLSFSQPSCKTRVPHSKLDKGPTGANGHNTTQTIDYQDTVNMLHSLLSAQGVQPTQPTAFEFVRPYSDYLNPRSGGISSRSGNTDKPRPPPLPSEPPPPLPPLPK

| Substance | in vitro kinase assay (phosphorylation of the substrate) [1] | in vitro kinase assay (phosphorylation of the substrate) [2] | in vitro kinase assay (phosphorylation of the substrate) [3] | in vitro kinase assay (autophosphorylation of the preparation) (Cyclin T1) |
| --- | --- | --- | --- | --- |
| FLAG-tagged CDK9 (FT-CDK9) | The f:CDK9 immunopurified preparation was able to phosphorylate both rGST-CTD and RPB1 within Pol II | the immunopurified f:CDK9 actively phosphorylated a circa 160 kDa polypeptide, most likely f:DSIF p160, within an immunopurified f:DSIF p160 preparation | The f:CDK9 immunopurified preparation was able to phosphorylate both rGST-CTD and RPB1 within Pol II | The FT-CDK9 immunopurification autophosphorylates specific components circa 45 kD and 87 kD, consistent with the molecular weights expected for Cyclin T1 and a FT-CDK9 |
| FLAG-tagged CDK9M (FT-CDK9M), CDK9 with the D167N mutation | significantly impaired in its ability to phosphorylate either rGST-CTD or RPB1 within Pol II |  | significantly impaired in its ability to phosphorylate either rGST-CTD or RPB1 within Pol II | The FT-CDK9M immunopurification was significantly weaker in its ability to autophosphorylate the 87 kD band |
